Target: 食蟹猴CEACAM6蛋白 (cynomolgus CEACAM6 protein) (cynomolgus monkey)
Assay: ELISA, plate-coated cynomolgus CEACAM6 protein

EC50: 463 pM
B1: UM05-L9 (antibody, human IgG1, kappa, V domains shown)
VH: QVQLQQSGPELVRPGVSVKISCKGSGYTFTDYAMHWVKQSHAKSLEWIGVISTYSGHTNYNQKFKGKAIMTVDKSSSTAYMDLARLTSEDSAIYYCVRGSTTAHYYTMDFWGQGTSVTVSS
VL: DIQMTQSPVSLSASVGETVTITCGASENIYGTLNWYQRKQGKSPQLLIYGATNLADGVSSRFSGSGSGRQYSLKISSLHPDDVATYYCQNVLSIPYTFGGGTKLEIKR

From patent CN115819596A
